The source of these data is patent publication WO2016071355A1 (dated 2016).

Where a chain is given by its changes, count along the chain named. In names and notes the source's numbering stands.

As usually defined, the Kd is the concentration at which binding is half-saturated.

Assay [1] deals with T1, soluble extracellular region of human CD38 fused to a 6-His-tag (human, UniProt P28907 43-300).
T1 construct: also called human CD38 extracellular domain with a poly-histidine tag; human CD38 antigen
Description: SPR, antibody captured on protein G, CD38-His injected.

A further assay concerns the target human CD38 on cells (human, UniProt P28907 1-300). Description: cell-based or functional assay.
Assay [2] deals with T1, soluble extracellular region of human …. Description: SPR. A general note: Surface plasmon resonance follows binding to a sensor surface in real time, without labels.
In assay [3] the target is T2, soluble extracellular region of cynomolgus monkey CD38 antigen fused to a 6-His-tag (cynomolgus monkey, UniProt Q5VAN0 45-301).
T2 construct: also called cynomolgus CD38
Description: SPR.

A further assay concerns the target T3, Protein A (Staphylococcus aureus, UniProt P38507 212-269).
T3 construct: The resin ligand is a commercial recombinant Protein A derivative
Description: protein A affinity chromatography.

The target of the next assay is Protein G (UniProt P19909 303-497). As to the kind of experiment: protein G affinity chromatography, SDS-PAGE.

B1: chimeric HB-7 antibody (antibody, human IgG1, kappa, V domains shown)
VH: KVQLQESGPSLVQPSQRLSITCTVSGFSLISYGVHWVRQSPGKGLEWLGVIWRGGSTDYNAAFMSRLSITKDNSKSQVFFKMNSLQADDTAIYFCAKTLITTGYAMDYWGQGTTVTVSS
VL: DIELTQSPSSFSVSLGDRVTITCKASEDIYNRLAWYQQKPGNAPRLLISGATSLETGVPSRFSGSGSGKDYTLSITSLQTEDVATYYCQQYWSTPTFGGGTKLEIKR
Molecule B1 registered a dissociation constant (Kd) in assay [1] of 2.5 nM.

B2: BEAT CD38-9G7Mouse/CD3 (bispecific antibody, human IgG1, kappa, L234A L235A)
heavy: not shown
light: DIVMTQSHKFMSTSVGDRVSISCKASQDVITSVAWFQQKPGQSPKLLIYSASYRYTGVPDRFTGSGSGTDFTFTISSVQAEDLAVYYCQQHYTIPLTFGAGTKLELKRTVAAPSVFIFPPSDEQLKSGTASVVCLLNNFYPREAKVQWKVDNALQSGNSQESVTEQDSKDSTYSLSSTLTLSKADYEKHKVYACEVTHQGLSSPVTKSFNRGEC
scFv: EVQLVESGGGLVQPGGSLRLSCAASGYTFTRYTMHWVRQAPGKGLEWIGYINPSRGYTYYADSVKGRFTLSTDKSKNTAYLQMSSLRAEDTAVYYCARYYDDHYCLDYWGQGTLVTVSSGGGGSGGGGSGGGGSDIQLTQSPSSLSASVGDRVTITCRASSSVSYVAWYQQKPGKAPKRWIYDTSKLYSGVPSRFSGSGSGTDYTLTISSLQPEDFATYYCQQWSSNPPTFGQGTKVEIKGGGGTDKTHTCPPCPAPEAAGGPSVFLFPPKPKDTLMISRTPEVTCVVVDVSHEDPEVQFKWYVDGVEVHNAKTKPREEQYNSTFRVVSVLTVLHQDWLNGKEYKCKVSNKALPAPIEKTISKTKGQPREPEVATFPPSREEMTKNQVTLVCLVTGFYPSDIAVEWESSGQPENNYNTDPPLLESDGSFALSSRLRVDKSRWQQGNIFSCSVMHEALHNRFTQKSLSLSPGK
B2: in the assay with human CD38 on cells, the “EC50, killing of Daudi cells (flow cytometry, PBMCs, 48h)” value is 0.0032 nM.

B3: BEAT CD38-OKT10Mouse/CD3 (bispecific antibody, human IgG1, kappa, L234A L235A)
heavy: QVELVESGGSLKLSCAASGFDFSRSWMNWVRQAPGKGLEWIGEINPDSSTINYTTSLKDKFIISRDNAKNTLYLQMTKVRSEDTALYYCARYGNWFPYWGQGTLVTVSSASTKGPSVFPLAPSSKSTSGGTAALGCLVKDYFPEPVTVSWNSGALTSGVHTFPAVLQSSGLYSLSSVVTVPSSSLGTQTYICNVNHKPSNTKVDKKVEPKSCDKTHTCPPCPAPEAAGGPSVFLFPPKPKDTLMISRTPEVTCVVVDVSHEDPEVKFNWYVDGVEVHNAKTKPREEQYNSTYRVVSVLTVLHQDWLNGKEYKCKVSNKALPAPIEKTISKAKGQPREPAVYTLPPSRDELTKNQVKLVCLVTGFYPSDIAVEWESNGQPENNYYTTPPVLDSDGSFSLVSWLNVDKSRWQQGNVFSCSVMHEALHNHYTQKSLSLSPGK
light: DILMTQSQKIMPTSVGDRVSVTCKASQNVDTNVAWYQQKPGQSPKALIYSASYRYSGVPDRFTGSGSGTDFTLTITNVQSEDLAEYFCQQYDSYPLTFGAGTKLDLKRTVAAPSVFIFPPSDEQLKSGTASVVCLLNNFYPREAKVQWKVDNALQSGNSQESVTEQDSKDSTYSLSSTLTLSKADYEKHKVYACEVTHQGLSSPVTKSFNRGE
scFv: B2 scFv
Consider B3, for which the “EC50, killing of Daudi cells (flow cytometry, PBMCs, 48h)” value with human CD38 on cells came out at 0.126 nM.

B4: first humanized 9G7 antibody prototype (antibody, human IgG1, kappa, V domains shown)
VH: QVTLKESGPTLVKPTQTLTLTCTFSGLSLSTSGKGVGWIRQPPGKALEWLAHIWWDDDKRYNPALKSRLTITKDTSKNQVVLTMTNMDPVDTATYYCARIELGRSYVMDYWGQGTLVTVSS
VL: DIQMTQSPSSLSASVGDRVTITCQASQDVITSVAWFQQKPGKAPKLLIYSASYRYTGVPSRFSGSGSGTDFTFTISSLQPEDIATYYCQQHYTIPLTFGQGTKLEIKR
notes: Human IgG1 isotype; also called first antibody prototype; first humanized prototype
As to B4, in assay [2], the Kd turned out to be 1 nM and the “fold lower binding than the mouse parental antibody” value amounted to 3 fold.

B5: humanized 9G7 best-framework antibody (antibody, human IgG1, kappa, V domains shown)
VH: EVQLVESGGGLVQPGGSLRLSCAFSGLSLSTSGKGVGWIRQAPGKGLEWLAHIWWDDDKRYNPALKSRLTISKDTSKNTVYLQMNSLRAEDTAVYYCARIELGRSYVMDYWGQGTLVTVSS
VL: B4 VL with Q24R, F73L, I83F, L104V
notes: Human IgG1
B5: the Kd stood at 0.4 nM in assay [1] and 1 nM in assay [3].

B6: humanized 9G7 best-fit antibody (antibody, human IgG1, kappa, V domains shown)
VH: B4 VH
VL: B4 VL with F36Y
notes: Human IgG1; also called 9G7 best-fit F36Y humanized variant
With B6, the figures for the Kd in assay [1] and in assay [3] were 0.5 nM and 3.2 nM, respectively. Besides, in assay [2], the “fold improvement of affinity over the first humanized prototype” value was 2 fold.

B7: BEAT CD38-HB7bestfit/CD3 antibody (bispecific antibody, human IgG1, kappa, L234A L235A)
heavy: QVQLQESGPGLVKPSETLSLTCTVSGFSLISYGVHWVRQPPGKGLEWLGVIWRGGSTDYNAAFMSRLTISKDNSKNQVSLKLSSVTAADTAVYFCAKTLITTGYAMDYWGQGTLVTVSSASTKGPSVFPLAPSSKSTSGGTAALGCLVKDYFPEPVTVSWNSGALTSGVHTFPAVLQSSGLYSLSSVVTVPSSSLGTQTYICNVNHKPSNTKVDKKVEPKSCDKTHTCPPCPAPEAAGGPSVFLFPPKPKDTLMISRTPEVTCVVVDVSHEDPEVKFNWYVDGVEVHNAKTKPREEQYNSTYRVVSVLTVLHQDWLNGKEYKCKVSNKALPAPIEKTISKAKGQPREPAVYTLPPSRDELTKNQVKLVCLVTGFYPSDIAVEWESNGQPENNYYTTPPVLDSDGSFSLVSWLNVDKSRWQQGNVFSCSVMHEALHNHYTQKSLSLSPGK
light: DIQLTQSPSSLSASVGDRVTITCRASEDIYNRLAWYQQKPGKAPKLLISGATSLETGVPSRFSGSGSGKDYTLTISSLQPEDFATYYCQQYWSTPTFGQGTKLEIKRTVAAPSVFIFPPSDEQLKSGTASVVCLLNNFYPREAKVQWKVDNALQSGNSQESVTEQDSKDSTYSLSSTLTLSKADYEKHKVYACEVTHQGLSSPVTKSFNRGEC
scFv: EVQLVESGGGLVQPGGSLRLSCAASGYTFTRYTMHWVRQAPGKGLEWIGYINPSRGYTYYADSVKGRFTLSTDKSKNTAYLQMSSLRAEDTAVYYCARYYDDHYCLDYWGQGTLVTVSSGGGGSGGGGSGGGGSGGGASDIQLTQSPSSLSASVGDRVTITCRASSSVSYVAWYQQKPGKAPKRWIYDTSKLYSGVPSRFSGSGSGTDYTLTISSLQPEDFATYYCQQWSSNPPTFGQGTKVEIKGGGGTDKTHTCPPCPAPEAAGGPSVFLFPPKPKDTLMISRTPEVTCVVVDVSHEDPEVQFKWYVDGVEVHNAKTKPREEQYNSTFRVVSVLTVLHQDWLNGKEYKCKVSNKALPAPIEKTISKTKGQPREPEVATFPPSREEMTKNQVTLVCLVTGFYPSDIAVEWESSGQPENNYNTDPPLLESDGSFALSSRLRVDKSRWQQGNIFSCSVMHEALHNRFTQKSLSLSPGK
For the molecule B7, in the assay with human CD38 on cells, the “EC50, T cell redirected killing of RPMI 8226 myeloma cells (RDL-FACS, purified T cells, 48h)” value amounted to 0.0022 nM. In assay [1], this molecule came in with a dissociation constant Kd of 3.2 nM.

B8: BEAT CD38-HB7bestfit/CD3(SP34) antibody (bispecific antibody)
heavy: QVQLQESGPGLVKPSETLSLTCTVSGFSLISYGVHWVRQPPGKGLEWLGVIWRGGSTDYNAAFMSRLTISKDNSKNQVSLKLSSVTAADTAVYFCAKTLITTGYAMDYWGQGTLVTVSSASTKGPSVFPLAPSSKSTSGGTAALGCLVKDYFPEPVTVSWNSGALTSGVHTFPAVLQSSGLYSLSSVVTVPSSSLGTQTYICNVNHKPSNTKVDKKVEPKSCDKTHTCPPCPAPEAAGGPSVFLFPPKPKDTLMISRTPEVTCVVVDVSHEDPEVQFKWYVDGVEVHNAKTKPREEQYNSTFRVVSVLTVLHQDWLNGKEYKCKVSNKALPAPIEKTISKTKGQPREPAVYTLPPSREEMTKNQVKLVCLVTGFYPSDIAVEWESSGQPENNYYTTPPMLDSDGSFSLVSWLNVDKSRWQQGNIFSCSVMHEALHNRFTQKSLSLSPGK
light: B7 light
scFv: not shown
B8: the “EC50, T cell redirected killing of Daudi cells (RDL-FACS, PBMCs, 24h)” value with human CD38 on cells stood at 0.0018 nM.

B9: BTB homodimer construct lacking the VH3 based scFv (other)
chain: DKTHTCPPCPAPEAAGGPSVFLFPPKPKDTLMISRTPEVTCVVVDVSHEDPEVKFNWYVDGVEVHNAKTKPREEQYNSTYRVVSVLTVLHQDWLNGKEYKCKVSNKALPAPIEKTISKAKGQPREPEVATFPPSRDELTKNQVTLVCLVTGFYPSDIAVEWESNGQPENNYKTDPPLLESQGSFALSSRLRVDKSRWQQGNVFSCSVMHEALHNHYTQKSLSLSPGK
On to B9, for which the binding result in the assay with Protein A and with Protein G was “no binding” each time.

B10: humanized HB-7 best-fit antibody (antibody, human IgG1, kappa, V domains shown)
VH: QVQLQESGPGLVKPSETLSLTCTVSGFSLISYGVHWVRQPPGKGLEWLGVIWRGGSTDYNAAFMSRLTISKDNSKNQVSLKLSSVTAADTAVYFCAKTLITTGYAMDYWGQGTLVTVSS
VL: DIQLTQSPSSLSASVGDRVTITCRASEDIYNRLAWYQQKPGKAPKLLISGATSLETGVPSRFSGSGSGKDYTLTISSLQPEDFATYYCQQYWSTPTFGQGTKLEIKR
notes: Human IgG1 format
In assay [1], B10 had a Kd of 3.6 nM.
